The source of these data is patent publication US20190359712A1 (Daiichi Sankyo, published 2019).

For assay [1], the target named is T1, human CD3εδ expressed on transfected Lenti-X293T cells (human, UniProt P07766 23-207; P04234 22-171).
T1 construct: Cells co-transfected with hCD3ε-pcDNA3.1 and hCD3δ-pcDNA3.1
In words: flow cytometry, hybridoma supernatant on hCD3ε/hCD3δ-transfected Lenti-X293T cells. (A flow cytometer gives signals particle by particle.)
Description: On the next day, hCD3ε-pcDNA3.1 and hCD3δ-pcDNA3.1 or a control pcDNA3.1-DEST was transfected to the Lenti-X293T cells using Lipofectamine 2000, and the cells were further cultured overnight at 37° C. under 5% CO₂ conditions. On the next day, the expression vector-transfected Lenti-X293T cells were treated with TrypLE Express (Thermo Fisher Scientific Inc.), washed with DMEM containing 10% FBS, and then adjusted to a concentration of 5×10⁶ cells/mL in PBS containing 5% FBS. The resulting cell suspension was used in flow cytometry analysis.
The hCD3δ-pcDNA3.1- and hCD3δ-pcDNA3.1-transfected Lenti-X293T cells or the pcDNA3.1-DEST-transfected Lenti-X293T cells were suspended by the addition of the hybridoma culture supernatant and left standing at 4° C. for 1 hour. The cells were washed once with PBS containing 5% FBS, then suspended by the addition of Anti-Rat IgG FITC conjugate (Sigma-Aldrich Corp.) diluted 500-fold with PBS containing 5% FBS, and left standing at 4° C. for 30 minutes. The cells were washed twice with PBS containing 5% FBS and then resuspended in PBS containing 5% FBS and 2 μg/ml 7-aminoactinomycin D (Molecular Probes, Inc.), followed by detection using a flow cytometer. The data was analyzed using Flowjo. After removal of 7-aminoactinomycin D-positive dead cells by gating, the FITC fluorescence intensity of live cells was plotted to a histogram.

The target in assay [2] is T2, cynomolgus monkey CD3 on cynomolgus monkey PBMC or T cell line HSC-F (cynomolgus monkey, UniProt Q95LI5 22-198).
T2 construct: whole, on cells; Native CD3 complex on monkey T cells; also called cynomolgus monkey CD3 (PBMC); cynomolgus monkey CD3 antigen
In words: flow cytometry, hybridoma supernatant on cynomolgus monkey T cell line HSC-F.
Description: A cynomolgus monkey T cell line HSC-F (JCRB Cell Bank, No. JCRB1164) was adjusted to a concentration of 5×10⁶ cells/mL in an RPMI1640 medium containing FBS and added at a concentration of 100 μL/well to a 96-well plate. […] Then, the supernatant was removed, and the cells in the wells were washed once with PBS containing 5% FBS, then suspended by the addition of Anti-Rat IgG FITC conjugate diluted 500-fold with PBS containing 5% FBS, and left standing at 4° C. for 1 hour. The cells were washed three times with PBS containing 5% FBS and then resuspended in PBS containing 5% FBS and 2 μg/ml 7-aminoactinomycin D, followed by detection using a flow cytometer. The data was analyzed using Flowjo. After removal of 7-aminoactinomycin D-positive dead cells by gating, the FITC fluorescence intensity of live cells was plotted to a histogram.

Assay [3] deals with T3, human TROP2 on FaDu and HPAF-II cells (human, UniProt P09758 27-323).
T3 construct: whole, on cells
T3 sequence (looked up): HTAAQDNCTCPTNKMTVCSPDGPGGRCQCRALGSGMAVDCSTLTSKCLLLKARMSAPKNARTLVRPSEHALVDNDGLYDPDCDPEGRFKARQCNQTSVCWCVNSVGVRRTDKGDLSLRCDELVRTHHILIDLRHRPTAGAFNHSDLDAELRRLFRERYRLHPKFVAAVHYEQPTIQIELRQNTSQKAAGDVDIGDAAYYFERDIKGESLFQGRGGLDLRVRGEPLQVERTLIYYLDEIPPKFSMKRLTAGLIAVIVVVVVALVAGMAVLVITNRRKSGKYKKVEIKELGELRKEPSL
In words: flow cytometry on FaDu and HPAF-II cells, Penta-His Alexa Fluor 488 detection (rMFI). The protocol: The cells were washed twice with PBS containing 5% FBS, then adjusted to a concentration of 1×10⁶ cells/mL with PBS containing 5% FBS, added at a concentration of 100 μL/well to a 96-well U-bottomed microplate, and centrifuged to remove a supernatant. […] The cells were washed twice with PBS containing 5% FBS.

Assay [4] addresses T4, CD3 immobilized on a sensor chip (Example 7)-1-2).
T4 construct: the text says only 'CD3 immobilized on a sensor chip'; also called human CD3
The assay is described as follows: SPR (BIAcore T-200), CD3 immobilized, scFv injected at five concentrations; concentration giving 1/2 Rmax. As for the experimental part:
Five different concentrations of the scFv were injected into CD3 immobilized on a sensor chip. Rmax was estimated from the resulting response, and the antibody concentration that reached 1/2 thereof was defined as the dissociation constant of the scFv for CD3.
(Surface plasmon resonance follows binding to a sensor surface in real time, without labels.)

The next assay has as its target T5, human CD3 on human PBMC (human, UniProt P07766 23-207).
T5 construct: Native CD3 complex on T cells in PBMC; the other chains of the complex are native; also called human CD3 (PBMC)
The assay is described as follows: flow cytometry on human PBMC, Penta-His Alexa Fluor 488 detection (rMFI). As for the experimental part:
Commercially available human PBMC (Cellular Technology Ltd. (CTL)) was adjusted to an appropriate concentration with PBS containing 5% FBS. LIVE/DEAD Fixable Near-IR Dead Cell Stain Kit (Thermo Fisher Scientific Inc.) and an anti-CD19 antibody (Beckman Coulter Inc.) were added to the cells, which were then left standing at 4° C. for 30 minutes. The cells were washed twice with PBS containing 5% FBS, then adjusted to a concentration of 1×10⁶ cells/mL with PBS containing 5% FBS, added at a concentration of 100 μL/well to a 96-well U-bottomed microplate, and centrifuged to remove a supernatant. […] The cells were washed twice with PBS containing 5% FBS. Then, Penta-His Alexa Fluor 488 (Qiagen N.V.) diluted with PBS containing 5% FBS was added at a concentration of 30 μL/well, and the plate was left standing at 4° C. for 30 minutes. The cells were washed twice with PBS containing 5% FBS and then resuspended in PBS containing 5% FBS, followed by detection using a flow cytometer (FACSCanto™ II; Becton, Dickinson and Company). The data was analyzed using Flowjo (Tree Star Inc.). The mean fluorescence intensity (MFI) of Alexa Fluor 488 in a fraction free of dead cells and CD19-positive cells was calculated. The MFI value of the scFv-unsupplemented sample was subtracted from the MFI value of the scFv-supplemented sample to calculate a relative value of MFI (rMFI).

For assay [5], the target named is T6, human CD3εγ single-chain antigen (human).
T6 construct: also called scCD3εγ; His-scCD3 antigen
T6 chain: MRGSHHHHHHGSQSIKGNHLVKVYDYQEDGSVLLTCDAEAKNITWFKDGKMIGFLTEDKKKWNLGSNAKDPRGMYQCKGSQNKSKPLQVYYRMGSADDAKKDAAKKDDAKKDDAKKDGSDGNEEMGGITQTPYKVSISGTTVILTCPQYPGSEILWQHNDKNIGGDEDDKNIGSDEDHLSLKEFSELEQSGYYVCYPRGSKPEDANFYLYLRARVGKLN
In words: complex mixed at a molar ratio of 1:2, purified by gel filtration and crystallized. Background: In gel filtration, larger molecules generally elute earlier.
Description: The buffer solution was replaced with 10 mM Tris HCl (pH 7.5) and 50 mM NaCl using Amicon Ultra 15 MWCO 10K (Merck Millipore), and the resulting solution was concentrated to 3.5 mg/mL. This concentrate was purified by gel filtration chromatography using Superdex 200 10/300GL (GE Healthcare Bio-Sciences Corp.). A fraction of the complex was concentrated into approximately 4.0 mg/mL using Amicon Ultra 15 MWCO 10K (Millipore).
To 0.5 μL of the protein solution, an equal amount of a precipitant solution (0.1 M MES monohydrate (pH 6.5), 1.6 M ammonium sulfate, and 10% v/v 1,4-dioxane) was added, and the resulting solution was placed in a sealed container containing 0.05 mL of a precipitant solution so that the solutions had no contact with each other. The container was left standing at 25° C. One month later, 0.1 mm×0.05 mm×0.05 mm rod-like crystals were obtained.

Assay [6] concerns the target T2, cynomolgus monkey CD3 on cynomolgus …. The assay is described as follows: flow cytometry on cynomolgus monkey PBMC.

T2 sequence (Q95LI5 22-198): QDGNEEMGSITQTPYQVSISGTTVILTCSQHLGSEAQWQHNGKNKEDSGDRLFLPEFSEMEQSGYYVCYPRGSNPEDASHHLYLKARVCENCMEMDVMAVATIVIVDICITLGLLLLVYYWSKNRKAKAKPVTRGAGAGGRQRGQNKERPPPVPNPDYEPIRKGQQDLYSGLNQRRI

B1: rat anti-CD3 monoclonal antibody C3-147 (antibody, IgG2b, V domains shown)
VH: EVQLVESGGGLVQPGRALKLSCVVSGVTFNYYGMSWIRQAPGKGLEWVASITNSGGRIYYPDSVKGRFTISRENTQKTLYLQMNSLRSEDTATYYCTLDGRDGWVAYWGQGTLVTVSS
VL: QFVLTQPNSVSTNLGTTVELSCKRNTGNIGSNYVNWYQQHEGRSPTTIIYRDDKRPDGVSDRFSGSIDRSSKSALLTINNVQTEDEADYFCQSYSSGFIFGGGTKLTVL
notes: probably lambda; also called rat anti-human CD3 antibody
In the case of B1, the binding result in assay [1] and in assay [2] was “binds” throughout.

B2: HT1-11 scFv (humanized anti-TROP2 scFv) (scFv)
scFv: QVQLVQSGAEVKKPGASVKVSCKASGYTFTTAGMQWVRQAPGQGLEWMGWINTHSGVPKYAEDFKGRVTISADTSTSTAYLQLSSLKSEDTAVYYCARSGFGSSYWYFDVWGQGTLVTVSSGGGGSGGGGSGGGGSDIQMTQSPSSLSASVGDRVTITCKASQDVSTAVAWYQQKPGKAPKLLIYSASYRYTGVPSRFSGSGSGTDFTLTISSLQPEDFAVYYCQQHYITPLTFGQGTKLEIKRTGAAAHHHHHH
notes: The scFv was detected through its His tag
As for B2, in assay [3], the binding result was “binds”.

B3: C3E-7034 (humanized anti-CD3 scFv) (scFv)
scFv: GEVQLVESGGGLVQPGGSLRLSCAASGVTFNYYGMSWIRQAPGKGLEWVASITNSGGRIYYPDSVKGRFTISRENTQKTLYLQMNSLRAEDTAVYYCTLDGRDGWVAYWGQGTLVTVSSGGGGSGGGGSGGGGSNFMLTQPHSVSESPGKTVTISCKRNTGNIGSNYVNWYQQHEGSSPTTIIYRDDKRPDGVSDRFSGSIDRSSKSASLTISNLKTEDEADYFCQSYSSGFIFGGGTKLTVLGAAAGAGGDYKDDDDKGAAAHHHHHH
What is called Kd is the constant that tells how readily two partners part at equilibrium. Consider B3, for which the Kd in assay [4] was 4.5 nM. The binding result (with human CD3 on human PBMC; in assay [5]; in assay [6]) was “binds” throughout.
